The values that follow come from paper PMC3400562 (2012).

Read-outs that look alike come from different tables or passages of the source.

One may read the koff as the rate constant with which the complex falls apart. For orientation: Kd means the constant that tells how readily two partners part at equilibrium. A higher Kd goes with weaker binding.

In assay [1] the target is wt MPER peptide (HIV-1).
The target in assay [2] is wt MPER peptide (HIV-1). The source holds these as a separate data set.
The target of assay [3] is wt MPER peptide (HIV-1). The source holds these as a separate data set.
In assay [4] the target is wt MPER peptide (HIV-1). This is another data set of the same source.

B1: 2F5 variant e4W (antibody, V domains shown)
VH: RITLKESGPPLVKPTQTLTLTCSFSGFSLSDFGVGVGWIRQPPGKALEWLAIIYSDDDKRYSPSLNTRLTITKDTSKNQVVLVMTRVSPVDTATYFCAHRRGPTTGGLFGWGGPIARGPVNAMDVWGQGITVTISS
VL: ALQLTQSPSSLSASVGDRITITCRASQGVTSALAWYRQKPGSPPQLLIYDASSLESGVPSRFSGSGSGTEFTLTISTLRPEDFATYYCQQLHFYPHTFGGGTRVDVR
Turning to B1, in assay [1], the koff stood at 0.0105 s⁻¹. In assay [2], this molecule came in with a Kd of 145 nM.

B2: 2F5 variant r6W (antibody, V domains shown)
VH: RITLKESGPPLVKPTQTLTLTCSFSGFSLSDFGVGVGWIRQPPGKALEWLAIIYSDDDKRYSPSLNTRLTITKDTSKNQVVLVMTRVSPVDTATYFCAHRRGLFGWRGPVNAMDVWGQGITVTISS
VL: ALQLTQSPSSLSASVGDRITITCRASQGVTSALAWYRQKPGSPPQLLIYDASSLESGVPSRFSGSGSGTEFTLTISTLRPEDFATYYCQQLHFYPHTFGGGTRVDVR
Turning to B2, in assay [1], the koff was 0.0224 s⁻¹. The same molecule yielded a Kd in assay [2] of 353 nM.

B3: 2F5 variant r4W2c (antibody, V domains shown)
VH: RITLKESGPPLVKPTQTLTLTCSFSGFSLSDFGVGVGWIRQPPGKALEWLAIIYSDDDKRYSPSLNTRLTITKDTSKNQVVLVMTRVSPVDTATYFCAHRRGPWFGWARGPVNAMDVWGQGITVTISS
VL: ALQLTQSPSSLSASVGDRITITCRASQGVTSALAWYRQKPGSPPQLLIYDASSLESGVPSRFSGSGSGTEFTLTISTLRPEDFATYYCQQLHFYPHTFGGGTRVDVR
B3: the koff in assay [1] came out at 0.00112 s⁻¹. This molecule displayed a Kd in assay [2] of 5.12 nM.

B4: 2F5 variant r4W2b (antibody, V domains shown)
VH: RITLKESGPPLVKPTQTLTLTCSFSGFSLSDFGVGVGWIRQPPGKALEWLAIIYSDDDKRYSPSLNTRLTITKDTSKNQVVLVMTRVSPVDTATYFCAHRRGPLFWWARGPVNAMDVWGQGITVTISS
VL: ALQLTQSPSSLSASVGDRITITCRASQGVTSALAWYRQKPGSPPQLLIYDASSLESGVPSRFSGSGSGTEFTLTISTLRPEDFATYYCQQLHFYPHTFGGGTRVDVR
As for B4, the koff in assay [1] is 0.0034 s⁻¹. In assay [2], this molecule came in with a dissociation constant (Kd) of 3.94 nM.

B5: 2F5 variant e2W (antibody, V domains shown)
VH: RITLKESGPPLVKPTQTLTLTCSFSGFSLSDFGVGVGWIRQPPGKALEWLAIIYSDDDKRYSPSLNTRLTITKDTSKNQVVLVMTRVSPVDTATYFCAHRRGPTTGLFGWGPIARGPVNAMDVWGQGITVTISS
VL: ALQLTQSPSSLSASVGDRITITCRASQGVTSALAWYRQKPGSPPQLLIYDASSLESGVPSRFSGSGSGTEFTLTISTLRPEDFATYYCQQLHFYPHTFGGGTRVDVR
In turn, B5 returned a koff in assay [1] of 0.0105 s⁻¹. In assay [2], the Kd worked out at 131 nM.

B6: 2F5 variant r4WY (antibody, V domains shown)
VH: RITLKESGPPLVKPTQTLTLTCSFSGFSLSDFGVGVGWIRQPPGKALEWLAIIYSDDDKRYSPSLNTRLTITKDTSKNQVVLVMTRVSPVDTATYFCAHRRGPLFGWYRGPVNAMDVWGQGITVTISS
VL: ALQLTQSPSSLSASVGDRITITCRASQGVTSALAWYRQKPGSPPQLLIYDASSLESGVPSRFSGSGSGTEFTLTISTLRPEDFATYYCQQLHFYPHTFGGGTRVDVR
In assay [1], B6 came in with a koff of 0.00055 s⁻¹. Further, the dissociation constant Kd in assay [2] came out at 2.77 nM.

B7: 2F5 variant r2W (antibody, V domains shown)
VH: RITLKESGPPLVKPTQTLTLTCSFSGFSLSDFGVGVGWIRQPPGKALEWLAIIYSDDDKRYSPSLNTRLTITKDTSKNQVVLVMTRVSPVDTATYFCAHRRGPTLFGWIARGPVNAMDVWGQGITVTISS
VL: ALQLTQSPSSLSASVGDRITITCRASQGVTSALAWYRQKPGSPPQLLIYDASSLESGVPSRFSGSGSGTEFTLTISTLRPEDFATYYCQQLHFYPHTFGGGTRVDVR
For the molecule B7, the koff in assay [1] came out at 0.00435 s⁻¹. The molecule further registered a Kd in assay [2] of 29.5 nM.

B8: 2F5 variant r4W3 (antibody, V domains shown)
VH: RITLKESGPPLVKPTQTLTLTCSFSGFSLSDFGVGVGWIRQPPGKALEWLAIIYSDDDKRYSPSLNTRLTITKDTSKNQVVLVMTRVSPVDTATYFCAHRRGPWFGWWRGPVNAMDVWGQGITVTISS
VL: ALQLTQSPSSLSASVGDRITITCRASQGVTSALAWYRQKPGSPPQLLIYDASSLESGVPSRFSGSGSGTEFTLTISTLRPEDFATYYCQQLHFYPHTFGGGTRVDVR
In turn, B8 came in with a Kd in assay [3] of 2.2 nM. Besides, the koff in assay [4] was 0.00174 s⁻¹.

B9: 2F5 variant r4W2a (antibody, V domains shown)
VH: RITLKESGPPLVKPTQTLTLTCSFSGFSLSDFGVGVGWIRQPPGKALEWLAIIYSDDDKRYSPSLNTRLTITKDTSKNQVVLVMTRVSPVDTATYFCAHRRGPLFGWWRGPVNAMDVWGQGITVTISS
VL: ALQLTQSPSSLSASVGDRITITCRASQGVTSALAWYRQKPGSPPQLLIYDASSLESGVPSRFSGSGSGTEFTLTISTLRPEDFATYYCQQLHFYPHTFGGGTRVDVR
Take B9: the off-rate (koff) in assay [1] was 0.00106 s⁻¹. The molecule also registered a Kd in assay [2] of 2.57 nM.

B10: 2F5 variant r4WY2 (antibody, V domains shown)
VH: RITLKESGPPLVKPTQTLTLTCSFSGFSLSDFGVGVGWIRQPPGKALEWLAIIYSDDDKRYSPSLNTRLTITKDTSKNQVVLVMTRVSPVDTATYFCAHRRGPYFGWYRGPVNAMDVWGQGITVTISS
VL: ALQLTQSPSSLSASVGDRITITCRASQGVTSALAWYRQKPGSPPQLLIYDASSLESGVPSRFSGSGSGTEFTLTISTLRPEDFATYYCQQLHFYPHTFGGGTRVDVR
The molecule B10 came in with a koff in assay [1] of 0.00193 s⁻¹. The Kd in assay [2] worked out at 5.49 nM.

B11: 2F5 variant r4W (antibody, V domains shown)
VH: RITLKESGPPLVKPTQTLTLTCSFSGFSLSDFGVGVGWIRQPPGKALEWLAIIYSDDDKRYSPSLNTRLTITKDTSKNQVVLVMTRVSPVDTATYFCAHRRGPLFGWARGPVNAMDVWGQGITVTISS
VL: ALQLTQSPSSLSASVGDRITITCRASQGVTSALAWYRQKPGSPPQLLIYDASSLESGVPSRFSGSGSGTEFTLTISTLRPEDFATYYCQQLHFYPHTFGGGTRVDVR
With B11, in assay [1], the dissociation rate constant (koff) is 0.00681 s⁻¹. Also, the Kd in assay [2] came out at 79.6 nM.
